The results in this text go back to patent US20250345467A1, “DENDRIMER FOR THERAPY AND IMAGING” (priority 2018, published 2025).

The nature of data set [1]: Organ biodistribution, clearance and health monitoring in the prostate cancer xenograft study. The note with it: Zr-89 labelled, mice bearing DU-145 or PC3 xenografts, whole study (9 days). Type of data set: in vivo, Balb/C nude mice. As to the method: The accumulation of two different dendrimer constructs in two different murine xenograft models of prostate cancer (DU145 and PC3 cell lines) was investigated. The two different constructs were compound 1b and 3 which are pre-conjugated with DFO, which were labelled with 89Zr for subsequent imaging studies. The biodistribution was measured by PET-CT out to 9 days in two different tumour xenografts and then validated by ex vivo gamma scintillation of excised organs at day 9.
Dendrimers were labelled and purified, validated by radioTLC prior to injection into the animals. Imaging was conducted in a cohort of n=4 mice for each cell line and each dendrimer. Standard health of the mice was monitored by score sheet and mouse weight over the complete timeframe of the study.
Healthy male Balb/C nude mice (˜20 g) from 8 weeks old were obtained from the ARC and used for this study. Mice were imported into the animal holding facility and monitored for 1 week prior to the study in order to acclimatise to the environment prior to injection of cells. […]
Mice (n=4 per group) bearing DU-145 or PC3 xenografts were injected with Zr-89 labelled dendrimers (compounds 1b and 3) via tail-vein. […] At 216 hrs post-injection, the organs were removed and signal intensity quantified by ex vivo gamma analysis. Faecal pellets were also measured for activity at this timepoint. […]

Data set [2] deals with spontaneous gliomas (high grade glioma mouse model). The data set can be described thus: PET-MRI tumour imaging study, glioblastoma. Type of data set: in vivo, mice. As to conditions: Zr-89 radiolabelled, approximately 5 MBq; for % ID/g at 40 hrs: 40 hrs post-injection; for % ID/g at 5 days: 5 days post-injection. The text has this:
The aim of this study was to assess the level of accumulation of example radionuclide-containing dendrimers in mice bearing spontaneous gliomas. This model provides a route to effectively assess the ability to both cross the blood-brain-barrier (BBB) as well as accumulate in tumour tissue.
Gt(ROSA)26So^rtm14(CAG-tdTomato)Hze 20023653 was crossed with Pten^tm2MAK; Rb1^tm2Bm; Trp53^tm1Bm; Tg(GFAP-cre/Esr1*,−lacZ)BSbk^31,44-47 (alleles) and backcrossed six generations to latter mice to generate Gt(ROSA)26Sor^tm14(CAG-tdTomato)Hze; Pten^tm2MAK; Rb1^tm2Bm; Trp53^tm1Bm; Tg(GFAP-cre/Esr1*,−lacZ)BSbk (high grade glioma mouse model; HGG). Mice were maintained on a predominantly FVB/NJ background with contributions from 129/SV and C57Bl6. To induce Cre recombinase and thereby tumor formations, 20 mg/ml Tamoxifen (Sigma-Aldrich) dissolved in corn oil (Sigma-Aldrich) was injected intraperitoneally. Up to 200 mg/kg body weight was administered weekly for 3 consecutive weeks after postnatal day (P) 30 (range P30-44). Animal's health and welfare was monitored up to twice daily and animals were euthanized based on morbidity requirement.
91 μL Zr-89 oxalate in 1 M oxalic acid (Perkin Elmer) was diluted with 78 μL 1 M Na2CO3 to neutralize pH. Dendrimer 1b was dissolved in 0.5 M HEPES (pH 7.5). 33 μL neutralized Zr-89 stock (approximately 15 MBq) was added to the dendrimer (146 μg) to give 100-fold excess of the dendrimer to Zr-89 and labelling was allowed to proceed at room temperature for 1 hour. The sample was then buffer exchanged into phosphate-buffered saline using Zeba Spin Desalting Columns (7 kDa MWCO, Thermo Fisher Scientific). 1 μL sample of the solution was taken and spotted on thin layer chromatography paper (Agilent iTLC-SG Glass microfiber chromatography paper impregnated with silica gel) and run with 50 mM diethylenetriaminepentaacetic acid (DTPA) as the eluent. Control experiments were conducted to monitor the elution behaviour of unbound Zr-89 for quality control. Plates were then imaged on a Bruker In Vivo MS FX Pro imaging system using a radioisotopic phosphor screen. ˜100% chelation of the Zr-89 was observed and so the dendrimer was used directly for the imaging experiments.
Anaesthetized mice, with a cannulated tail vein, were placed in a combined MRI/PET system, comprising a 300 mm bore 7T ClinScan, running Siemens VB17, and removable PET insert containing 3 rings of 16 detector blocks with 15×15 LSO crystals (1.6×1.6×10 mm) per block, at the centre of the magnet bore operating under Siemens Inveon Acquisition Workplace (IAW) (Bruker, Germany). A 23 mm ID mouse head MRI RF coil inside the PET ring was used to acquire mouse head images simultaneously with the PET acquisition.
Mice were injected with approximately 5 MBq of Zr-89 labelled dendrimer 1b and imaged 40 hours and 5 days post-injection. At each imaging point a dose of Gadovist® contrast agent was injected to obtain pre- and post-contrast T1, T2, and dynamic image data. The injection dose at each timepoint was comprised of 50 μl Gadovist® diluted with PBS (1×) to give a total volume of 200 μl. This volume was injected via a catheter inserted into the tail vein in a slow bolus injection. Where collected, dynamic PET data acquisition was performed for 60 min. Prior to injection, fast localizer images and a 3D T1 weighted volumetric interpolated breath-hold examination VIBE sequence was acquired. Dynamic MRI images were acquired with a Gradient echo FLASH sequence, with 3 slices acquired each 2 seconds interval. The PET acquisition and dynamic MRI imaging was started simultaneously, a 2-3 min baseline period acquired and then the solution was injected. Following 15 min of dynamic MRI scanning, the T1 weighted VIBE was repeated, structural T2 weighted spin echo images acquired and a […] T1 weighted VIBE_DIXON sequence acquired to generate a 3D T1 map. […]

Data set [3] concerns DU-145 subcutaneous tumours. The data set is described as follows: Therapeutic study with radionuclide-containing dendrimers, DU-145 subcutaneous tumours. The data set is classed as in vivo, Balb/C nude mice. As to conditions: FIG. 20. From the text:
Healthy male Balb/C nude mice (˜20 g) from 8 weeks old were obtained from the ARC and used for this study. Mice were imported into the animal holding facility and monitored for 1 week prior to the study in order to acclimatise to the environment prior to injection of cells. All animals were provided with free access to food and water before and during the imaging experiments which were approved by the Animal Ethics Committee.
The following compounds were used in the study: • Example 4b • Example 5 • Jevtana® (cabazitaxel) • Comparative example A: a non-radionuclide-containing dendrimer, which is BHALys[Lys]32[α-DGA-Cabazitaxel]32†[ε-PEG˜2100]32‡. […] The actual mean number of PEG˜2100 groups attached to the BHALys[Lys]32 was determined experimentally by ^1H NMR. […]
78 mice were injected with 4×10^6 DU-145 cells in Matrigel into the right flank to induce subcutaneous tumours. Tumour volume and body mass was monitored twice per week before mice with evident tumour growth (approximately […] in volume, tumour volume=½ (length×width^2)) were randomly assigned to groups and injected with compounds according to the schedule outlined in the table below, at day 0, 7 and 14. Following injections, the mice were monitored three times per week for tumour volume and body mass. […]

In the case of “BHALys[Lys]32[(α-DGA-CTX)31(α-DFO)1(ε-PEG2000)32] [Compound 3]”, the adverse health effects entry in data set [1] is recorded as “no adverse health effects”.
Turning to “BHALys[Lys]32[(α-TDA-DTX)30(α-DFO)2(ε-PEG2000)32] [Compound 1b]”, the adverse health effects result in data set [1] is “no adverse health effects”. Also, the results for the “% ID/g at 40 hrs” value in data set [2] (Brain (minus tumour)), in data set [2] (Tumour) and in data set [2] (Vascalature) were 2.0 % ID/g, 4.3 % ID/g and 2.3 % ID/g, respectively. Besides, the “% ID/g at 5 days” value in data set [2] (Brain (minus tumour)) is given as 1.5 % ID/g; in data set [2] (Tumour) it was 4.0 % ID/g; in data set [2] (Vascalature) it was 2.0 % ID/g.
With “BHALys[Lys]32[(α-DGA-CTX)27(α-DOTA)2(ε-PEG2000)32] [Compound 4b]”, the “suppression of tumour growth, ranking among groups” value in data set [3] (group 4: higher dose, 4b 8 mg/kg (6 MBq) day 0, then Comparative Example A 8 mg/kg days 7 and 14) was “most effective”. Moreover, the “suppression of tumour growth” value in data set [3] (groups 4 and 7: Lu-177 labelled 4b 8 or 5 mg/kg (6 MBq) day 0, then Comparative Example A days 7 and 14) is reported as “effective in suppressing tumour growth”.
